Data published in patent publication US20190002534A1 (UNIVERSITY OF MASSACHUSETTS, published 2019).

Experiments:
[1] = target: T1, G glycoprotein of rabies virus street isolate DR Brazil (rabies virus, isolate DR Brazil …); assay: cell-based or functional assay
[2] = target: T1, G glycoprotein of rabies virus street …; assay: cell-based or functional assay; remark: listed apart in the source

Binder | EC50 neutralization by RFFIT (Test A) [1] [µg/mL] | EC50 neutralization by RFFIT [2] [µg/mL]
anti-rabies virus human monoclonal antibody 2B10 (antibody, V domains shown) VH: EVQLVQSGGGLVHPGGSLRLSCAGSGFTFSYFAMHWVRQAPGKGLEWVSTIGTGGGTYYADSVKGRFTISRDNAKNSLYLQMNSLRAEDMAVYYCARDNALRSFDWLFYSFDYWGQGTLVTVSS VL: EIVLTQSPGTLSLSPGERATLSCRASQSISSSYLAWYQQKPGQAPRLLIYGASSRATGIPDRFSGSGSGTDFTLTISRLEPEDFAVYYCQRYGSSYTFGQGTKLEIK | 0.004 | 0.004
anti-rabies virus human monoclonal antibody 17C7 (antibody, V domains shown) VH: QVQLVESGGGVVQPGRSLRLSCAASGFTFSTYAMHWVRQAPGKGLEWVAVVSYDGRTKDYADSVKGRFTISRDNSKNTLYLQMNSLRTEDTAVYFCARERFSGAYFDYWGQGTLVTVSS VL: EIVLTQSPATLSLSPGERATLSCRASQSVSSYLAWYQQKPGQAPRLLIYDASNRATGIPARFSGSGSGTDFTLTISSLEPEDFAVYSCQQRNNWPPTFGGGTKVEIK | 0.222 | 0.222
